The target in one assay is T1, recombinant NDPK (Homo sapiens, UniProt P15531).
T1 construct: purchased Acro Biosystems NM1-H5147
Put plainly: Recombinant kinase activity assay, NDPK (ADP-Glo/Kinase-Glo). It is filed as biochemical. The protocol: An on-bead kinase assay was developed to measure the activity of endogenous NDPK and ADK pulled down from serum using a-Ab or c-Ab conjugated beads. Both NDPK and ADK are bi-directional kinases that will produce ATP or ADP depending on the substrates provided (FIGS. 4B-C). Kinase activity assays were performed in 384-well plates in reaction buffer (PBS with 0.1% BSA, 0.01% F-127, 5 mM MgCl2). Experiments with recombinant proteins were performed at final concentrations of 40 μg/ml for ADK and FABP4, and 20 ug/ml for NDPK, and a reaction volume of 10 μl. Antibodies were used at a final concentration of 80 ug/ml. Substrates were added in equimolar ratios depending on the kinase being assayed and the direction of the reaction in serial dose responses, with the highest concentration of 5 μM. Proteins and substrates were incubated for 1 hr at room temperature, and ADP and ATP production were monitored using ADP-Glo and Kinase-Glo kits, respectively, according the manufacturer instructions (V6930 and V6711 Promega, USA). Luminescence was quantified using a SpectraMax Paradigm plate reader 30 min after the addition of substrate. Consistent with the MS results, ADK activity, as measured by generation of ATP, was specifically observed in samples pulled down with a-Ab but not c-Ab (FIG. 5A). […] To test this possibility, the ATP and ADP generating activity of recombinant ADK was assessed in the presence of the proposed complex components.

A further assay relates to NOD mice. Nature of the assay: a-Ab treatment in NOD model of T1D. Type of assay: in vivo, mouse. Here is the method:
WT female NOD mice matched for age, weight, blood glucose, plasma insulin, and circulating FABP4 levels were utilized to explore the effect of antibody-mediated FABP4 targeting in the context of T1D, (FIGS. 2D-G). Mice were treated twice weekly with a-Ab, PBS, or a control antibody of the same isotype (c-Ab) starting at 10 weeks of age, when insulitis had already been established. […] Collectively, a-Ab-mediated protection against T1D and improvement of glycemic control in a DIO model of T2D are both associated with improved beta cell mass and function.
To investigate the contribution of proliferation to the increase in beta cell mass, NOD mice were treated with BrdU along with a-Ab, c-Ab, or PBS for 5 weeks beginning at 10 weeks of age. […] This difference is likely associated with the pro-proliferative environment of DIO as compared to the NOD model. […] Thus, targeting the FABP4-ADK-NDPK complex with a-Ab preserves beta cell mass and enhances beta cell function to protect against diabetes.
Pancreata were dissected and fixed in 10% zinc buffered formalin for 24-48 hrs before being washed and stored in 70% ethanol. Samples were paraffin embedded, and sectioned in steps 250 μm apart. Immunostaining for insulin, glucagon, BrdU and Cleaved Caspase 3 was performed as described previously (Prentice et al., 2014; Rezania et al., 2014). Images of each section were acquired using Aperio Imagescope at 20× magnification. The beta- or alpha-cell area was calculated by using positive pixel count analysis (Aperio ImageScope). Islet number and size was determined by manually circling insulin positive clusters in the Aperio ImageScope software. Two blinded individuals independently performed manual analysis and insulitis scoring.

Another assay concerns INS1 cells. Put plainly: Glucose-stimulated insulin secretion (GSIS), INS1 cells. It is filed as cell-based, rat. The protocol:
This finding was recapitulated in both primary human islets from multiple non-diabetic donors (FIG. 6B), as well as INS1 cells (FIG. 6C). Human islets from review board approved healthy donors were isolated using the Edmonton protocol and provided by the IsletCore and Clinical Islet Laboratory (University of Alberta, Canada). Donors with a BMI<25 and HbA1c<6.0% were used for experiments. Islets were hand-picked three times and cultured at 37° C. in RPMI media with 10% FBS and 1% Penicillin/Streptomycin overnight before use. For INS1 cells, cells were plated at 8000 cells/well in 96-well plates and incubated overnight prior to experimentation. Insulin secretion assay was performed as above using 200 μl/well for each treatment. Cells were lysed using 80 μl ultrapure water and flash freezing. For siRNA experiments, INS1 cells were allowed to reach confluency before transfection of siRNA (Horizon Discovery; L-090381-02-0005) using Lipofectamine 3000 (Thermo Fischer; L3000015) according to manufacturer protocol for 48 hours prior to assays.
As additional controls, it was explored whether lipid binding was required for FABP4 action. […] FABP4 inhibitor studies were performed using BMS-309403 (10 nM; Sigma #BM0015).
To further elucidate the role of purinergic receptors in this signaling process, a potent and selective P2Y1 inhibitor, MRS2179 (Baurand et al., 2001) was utilized. […]

The mark [1] stands for this setting: among the mice that developed diabetes.

This is an account of results in patent US20230203142A1, “TREATMENT OF METABOLIC DISORDERS THROUGH THE TARGETING OF A NOVEL CIRCULATING HORMONE COMPLEX” (The President and Fellows of Harvard College, priority 2020, published 2023).

T1 sequence (P15531 whole entry): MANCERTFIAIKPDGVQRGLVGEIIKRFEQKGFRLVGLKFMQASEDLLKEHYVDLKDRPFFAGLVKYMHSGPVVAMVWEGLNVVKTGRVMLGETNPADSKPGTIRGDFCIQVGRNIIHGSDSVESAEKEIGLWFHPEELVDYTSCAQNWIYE

B1: a-Ab: monoclonal antibody previously reported as CA33; heavy chain SEQ ID NO 446, light chain SEQ ID NO 447; binds FABP4 and NDPK (antibody, listed as Homo sapiens)
heavy: QSVEESGGRLVTPGTPLTLTCTVSGFSLSTYYMSWVRQAPGKGLEWIGIIYPSGSTYCASWAKGRFTISKASTTVDLKITSPTTEDTATYFCARPDNDGTSGYLSGFGLWGQGLVTVSSAKTTPPSVYPLAPGSAAQTNSMVTLGCLVKGYFPEPVTVTWNSGSLSSGVHTFPAVLQSDLYTLSSSVTVPSSTWPSETVTCNVAHPASSTKVDKKIVPRDC
light: DVVMTQTPASVSEPVGGTVTIKCGASEDISRYLVWYQQKPGQPPKRLIYKASTLASGVPSRFKGSGSGTDFTLTISDLECDDAATYYCQCTYGTYAGSFFYSFGGGTEVVVERTDAAPTVSIFPPSSEQLTSGGASVVCFLNNFYPKDINVKWKIDGSERQNGVLNSWTDQDSKDCTYSMSSTLTLTKDEYERHNSYTCEATHKTSTSPIVKSFNRNEC
B1: in the assay with recombinant NDPK (in the presence of the complex components), the “ADP producing capacity of NDPK” value is on record as “rescued”. Further, the “activity of NDPK to generate ADP” value in the assay with recombinant NDPK (recombinant NDPK plus the added component) is listed as “no effect”. Further, the “overall number of BrdU positive beta cells” value with NOD mice (NOD mice, 5 weeks, compared to c-Ab) is given as “no significant difference”. The “islet number and beta cell mass” value in the assay with NOD mice (NOD mice, compared to c-Ab-treated controls) is reported as “significant increase”. In addition, the “CC3 positive beta cells” value with NOD mice (NOD model, vs controls) is reported as “profound reduction”. In addition, in the assay with NOD mice (setting [1]), the blood glucose entry is listed as “significantly reduced” and the plasma insulin levels result is “higher”. Further, the “body weight, plasma insulin, or blood glucose levels” value in the assay with NOD mice (among the non-diabetic mice, throughout the study) is on record as “no significant differences”. Further, the “development of T1D” value with NOD mice (female NOD mice, twice weekly from 10 weeks of age) is “significantly protected”. In addition, in the assay with NOD mice (non-diabetic NOD mice), the “GSIS both in vivo and ex vivo” value is “improved”; the “glycemic control during GTT” value is listed as “improved”. Further, the glucagon positive area result with NOD mice (pancreatic sections, NOD mice) was “significant reduction”. Also, the “GSIS in the presence of the NDPK-ADK/FABP4 complex” value in the assay on INS1 cells is recorded as “rescued”.
